# Source: the supplement of paper PMC10126150
# ± gives the standard deviation of the averaged measurements.
# System: ATP
# Test: switch fluorescence ratio, 500 uM ATP over buffer (Cy3 cluster intensity, sum of 5 cycles each) (fold (ratio)); higher = stronger signal-on switching upon ATP binding; sequences stand for … in TCGTCGGCAGCGTCAGATGTGTATAAGAGACAGTTTTTTTTTTTTTTTTTTTTTTTTT…TC
# Settings: aptamer strand: ATP DNA aptamer (quencher-CACCTGGGGGAGTATTGCGGAGGAAGG + anchor), 100 nM annealed; ATP concentration: 500 uM
# How it was run: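 The fluorescence ratio divides summed target-cycle Cy3 intensity by summed buffer-cycle Cy3 intensity for each cluster and is averaged per switch-domain sequence. Cy3-labelled switching-strand clusters on a modified Illumina MiSeq flow-cell were annealed to 100 nM quencher-labelled ATP aptamer, then imaged in selection buffer and again after 15 min with 500 uM ATP at 22 °C. Five such cycles were run, with NaOH stripping and re-annealing between them, and clusters outside 100-1000 RFU were excluded.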
# 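Further: ATP exposure 15 min at 22 °C before imaging.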
row,Sequence,switch fluorescence ratio
1,GAGTGTCGGC,0.9963 ± 0.0052
2,GAGTGTTTTG,0.9957 ± 0.008
3,GAGTTAAGGA,1.02 ± 0.03
4,GAGTTAGGCA,1.029 ± 0.0098
5,GAGTTAGGGC,0.99 ± 0.011
6,GAGTTAGGGG,0.998 ± 0.018
7,GAGTTAGTAG,0.966 ± 0.02
8,GAGTTAGTGT,1.03 ± 0.017
9,GAGTTATCG,1.01 ± 0.018
10,GAGTTATGG,0.995 ± 0.043
11,GAGTTATGGA,1.03 ± 0.019
12,GAGTTATTCG,1.02 ± 0.023
13,GAGTTCAATG,1.01 ± 0.03
14,GAGTTCGAGG,1.02 ± 0.037
15,GAGTTCGCGT,1.093 ± 0.0049
16,GAGTTGAGGG,0.973 ± 0.023
17,GAGTTGGGAT,1.01 ± 0.011
18,GAGTTGGGCT,0.979 ± 0.012
19,GAGTTTAATC,1 ± 0.018
20,GAGTTTAGGA,0.969 ± 0.034
21,GAGTTTAGTT,0.9893 ± 0.0064
22,GAGTTTGGG,1 ± 0.02
23,GAGTTTGTGG,0.998 ± 0.024
24,GAGTTTTATG,0.9631 ± 0.0025
25,GAGTTTTGAG,1 ± 0.011

row,Sequence,switch fluorescence ratio
1,GAGTTTTGCG,1.03 ± 0.093
2,GAGTTTTGGA,1.02 ± 0.026
3,GAGTTTTTGG,0.973 ± 0.015
4,GAGTTTTTTA,0.98 ± 0.046
5,GATAAAAGGC,0.997 ± 0.024
6,GATAAAATAG,1.17 ± 0.2
7,GATAAAGAAG,0.9999 ± 0.0071
8,GATAACCATG,0.9933 ± 0.0035
9,GATAACTGAA,1.068 ± 0.0072
10,GATAAGTCAG,0.989 ± 0.018
11,GATAATAAAC,1.06 ± 0.045
12,GATAATTAGG,1.01 ± 0.02
13,GATAATTGTC,0.951 ± 0.048
14,GATAATTTTT,0.9884 ± 0.0084
15,GATACATAAA,1.036 ± 0.0092
16,GATACATCGG,1.03 ± 0.018
17,GATACCTTCG,2.614 ± 0.023
18,GATACGGGGC,1.02 ± 0.014
19,GATACGGTTA,1.03 ± 0.011
20,GATACTCAGC,1.06 ± 0.0058
21,GATAGAAGTG,0.986 ± 0.014
22,GATAGACCAG,1.01 ± 0.025
23,GATAGAGGGA,0.999 ± 0.01
24,GATAGATAGG,0.967 ± 0.055
25,GATAGATCAC,1.03 ± 0.03

row,Sequence,switch fluorescence ratio
1,GATAGCTTTT,1.05 ± 0.082
2,GATAGGAAAT,0.977 ± 0.036
3,GATAGGAGGG,0.959 ± 0.012
4,GATAGGATAG,0.991 ± 0.019
5,GATAGGGCGC,1.02 ± 0.026
6,GATAGGGGGT,1.01 ± 0.061
7,GATAGGGGTG,1.03 ± 0.03
8,GATAGGGTAA,0.988 ± 0.039
9,GATAGTAGTT,0.9851 ± 0.0096
10,GATAGTCGTG,0.994 ± 0.0056
11,GATAGTGAAG,0.993 ± 0.015
12,GATAGTGC,1.06 ± 0.078
13,GATAGTGGGA,0.997 ± 0.018
14,GATAGTGTCG,1.04 ± 0.045
15,GATAGTTGTA,1.01 ± 0.028
16,GATATAGGTT,1 ± 0.02
17,GATATATTGT,0.993 ± 0.035
18,GATATCAACG,1 ± 0.047
19,GATATGATCA,0.9733 ± 0.0052
20,GATATGCTAC,1.2 ± 0.023
21,GATATGCTAT,0.9915 ± 0.0066
22,GATATGTTGG,0.999 ± 0.017
23,GATATTAAAG,1.02 ± 0.014
24,GATATTAGGA,1 ± 0.088
25,GATATTGGGC,1.02 ± 0.024

row,Sequence,switch fluorescence ratio
1,GATATTTGCG,1.015 ± 0.0024
2,GATATTTGTG,0.995 ± 0.016
3,GATATTTTTA,0.98 ± 0.034
4,GATCAAAGGG,1.01 ± 0.021
5,GATCAAGGGA,1.03 ± 0.052
6,GATCACTCGT,1 ± 0.048
7,GATCAGAGGG,1.008 ± 0.01
8,GATCATCAGT,0.991 ± 0.023
9,GATCATTCTT,1.01 ± 0.016
10,GATCATTGAC,1.066 ± 0.0057
11,GATCCAGAAG,1.017 ± 0.0036
12,GATCCTGGGT,0.974 ± 0.034
13,GATCGAAAGG,0.966 ± 0.025
14,GATCGAGAGG,0.98 ± 0.025
15,GATCGAGGCG,0.9569 ± 0.0055
16,GATCGATTG,1.05 ± 0.051
17,GATCGCGTGG,0.968 ± 0.012
18,GATCGCTATC,2.91 ± 0.39
19,GATCGGGAAC,1.06 ± 0.031
20,GATCTAGGGC,1.02 ± 0.037
21,GATCTATTTT,1.01 ± 0.018
22,GATCTGCCTG,0.985 ± 0.029
23,GATCTGGGGC,1.06 ± 0.036
24,GATCTTAGGG,0.989 ± 0.028
25,GATCTTGGGT,1.11 ± 0.19

row,Sequence,switch fluorescence ratio
1,GATGAAAAAG,1.033 ± 0.0093
2,GATGAAATTG,0.953 ± 0.045
3,GATGAAGATT,1.011 ± 0.005
4,GATGAAGGTA,0.991 ± 0.052
5,GATGAATGGA,0.959 ± 0.011
6,GATGAATTGG,0.975 ± 0.012
7,GATGACTTGC,1 ± 0.064
8,GATGAGAGGA,1.03 ± 0.05
9,GATGAGCCCT,1.03 ± 0.015
10,GATGAGCGCC,1.03 ± 0.037
11,GATGAGGCGG,0.9832 ± 0.0015
12,GATGAGGTGC,1.07 ± 0.024
13,GATGATAAAA,0.989 ± 0.033
14,GATGATAACG,0.99754 ± 0.00091
15,GATGATCGTT,0.988 ± 0.0094
16,GATGATCTAT,1.01 ± 0.035
17,GATGATGGTG,0.968 ± 0.011
18,GATGCAGTTC,1.66 ± 0.053
19,GATGCATGC,1.22 ± 0.065
20,GATGCCACAG,1.02 ± 0.07
21,GATGCCGTAG,0.9997 ± 0.0036
22,GATGCGACCA,1.04 ± 0.065
23,GATGCGGGGG,1.02 ± 0.039
24,GATGCGGGTG,1.07 ± 0.016
25,GATGCGTGGC,0.998 ± 0.027

row,Sequence,switch fluorescence ratio
1,GATGCTAGAT,1.01 ± 0.026
2,GATGGAAAAA,1.04 ± 0.012
3,GATGGACAGC,1.04 ± 0.041
4,GATGGAGGGG,0.9965 ± 0.0039
5,GATGGATCGA,0.977 ± 0.039
6,GATGGATCGG,1.01 ± 0.017
7,GATGGATGGA,1.05 ± 0.026
8,GATGGCAAGG,1.04 ± 0.043
9,GATGGCCACG,0.9881 ± 0.0047
10,GATGGCCAGC,1.01 ± 0.041
11,GATGGCGGGG,0.981 ± 0.03
12,GATGGCGGGT,1.02 ± 0.07
13,GATGGCGTAT,0.98 ± 0.031
14,GATGGGAAGT,1.01 ± 0.024
15,GATGGGACAG,1.01 ± 0.0019
16,GATGGGAGGG,0.99 ± 0.027
17,GATGGGCTAA,1.04 ± 0.022
18,GATGGGCTTT,0.983 ± 0.024
19,GATGGGGCAC,1.01 ± 0.013
20,GATGGGGCGG,1.01 ± 0.048
21,GATGGGGTAA,0.997 ± 0.008
22,GATGGGTTTC,0.987 ± 0.012
23,GATGGTAACT,0.984 ± 0.017
24,GATGGTATTT,0.9794 ± 0.0062
25,GATGGTGTGG,0.997 ± 0.015

row,Sequence,switch fluorescence ratio
1,GATGGTTCGC,0.976 ± 0.015
2,GATGTAGGAT,0.978 ± 0.014
3,GATGTAGGGA,1.02 ± 0.029
4,GATGTATATG,0.992 ± 0.018
5,GATGTATGTT,0.978 ± 0.037
6,GATGTCAGGT,1.03 ± 0.044
7,GATGTCCCAG,1 ± 0.017
8,GATGTCGTTT,1.02 ± 0.049
9,GATGTCTGTT,0.955 ± 0.021
10,GATGTGCAAA,1.01 ± 0.022
11,GATGTGCCAG,0.969 ± 0.017
12,GATGTGCGAG,1.01 ± 0.017
13,GATGTGGGGC,0.996 ± 0.029
14,GATGTGTAGA,0.999 ± 0.018
15,GATGTGTGTT,0.9735 ± 0.0089
16,GATGTTAGGT,0.996 ± 0.023
17,GATGTTCGTG,0.994 ± 0.014
18,GATGTTGCGT,1.018 ± 0.004
19,GATGTTGGAA,0.997 ± 0.034
20,GATGTTTGAG,0.991 ± 0.017
21,GATGTTTGGC,1.05 ± 0.013
22,GATGTTTGGG,0.987 ± 0.019
23,GATGTTTGGT,0.99 ± 0.021
24,GATGTTTTGA,1 ± 0.018
25,GATTAAAACT,1.07 ± 0.025

row,Sequence,switch fluorescence ratio
1,GATTAAAATT,0.951 ± 0.064
2,GATTAAGGGT,1.04 ± 0.03
3,GATTAATAAG,1.16 ± 0.26
4,GATTAATCTG,0.962 ± 0.015
5,GATTAATGAG,1.01 ± 0.027
6,GATTACATGC,1.01 ± 0.037
7,GATTACTTTG,0.9562 ± 0.0039
8,GATTAGAGGG,0.9877 ± 0.0081
9,GATTATTAGC,0.9999 ± 0.004
10,GATTATTAGT,1.012 ± 0.01
11,GATTATTCTT,1.03 ± 0.035
12,GATTATTGGA,1.01 ± 0.026
13,GATTATTTGG,0.986 ± 0.011
14,GATTCAAGTG,0.96 ± 0.022
15,GATTCAGGAC,1.04 ± 0.012
16,GATTCATTAT,0.988 ± 0.011
17,GATTCCTATC,0.996 ± 0.039
18,GATTCGAATC,1 ± 0.034
19,GATTCGATCT,0.993 ± 0.024
20,GATTCTATAG,0.988 ± 0.036
21,GATTGAAAGG,0.957 ± 0.0097
22,GATTGAATAA,0.997 ± 0.019
23,GATTGACCCT,1.048 ± 0.0092
24,GATTGACGGC,1 ± 0.045
25,GATTGACGTG,0.957 ± 0.08
